{"source": "patent US20210002623", "key": {"peptide YFLMNENRYTSWNSE": {"target": "T1, peptide YFLMNENRYTSWNSE", "T1 chain": "YFLMNENRYTSWNSE"}, "[1]": {"target": "T2, H-Trp-Phe-Tyr-Ser(PO3H2)-Pro-Arg-pNA", "T2 chain": "WFYSPR"}}, "data": [{"protein": "PhTET2 (leucyl aminopeptidase of Pyrococcus horikoshii) (protein) MEVRNMVDYELLKKVVEAPGVSGYEFLGIRDVVIEEIKDYVDEVKVDKLGNVIAHKKGEGPKVMIAAHMDQIGLMVTHIEKNGFLRVAPIGGVDPKTLIAQRFKVWIDKGKFIYGVGASVPPHIQKPEDRKKAPDWDQIFIDIGAESKEEAEDMGVKIGTVITWDGRLERLGKHRFVSIAFDDRIAVYTILEVAKQLKDAKADVYFVATVQEEVGLRGARTSAFGIEPDYGFAIDVTIAADIPGTPEHKQVTHLGKGTAIKIMDRSVICHPTIVRWLEELAKKHEIPYQLEILLGGGTDAGAIHLTKAGVPTGALSVPARYIHSNTEVVDERDVDATVELMTKALENIHELKI", "values": [{"measurement": "time necessary to hydrolyse 50% of the peptide, at 40 °C", "setting": "peptide YFLMNENRYTSWNSE", "value": "0.5 h for PhTET2 compared to 3,9 h for MjTET at 40 °C"}]}, {"protein": "MjTET (TET aminopeptidase of Methanocaldococcus jannaschii, product of gene MJ0555) (protein) MSVVEYLKKLSKLHGISGREDSVREFMKKELEKYCDSVEIDNFGNLIAKRGNKGKKIMIAAHMDEIGLMVKYIDDNGFLKFTKIGGIYDPTILNQKVVVHGSKGDLIGVLGSKPPHRMKEEEKTKIIKYEDMFIDIGAESREEAIEMGVNIGTWVSFLSEVYDLGKNRLTGKAFDDRVGCAVLLEVMKRLSEEDIDCQVYAVGTVQEEVGLKGARVSAFKINPDVAIALDVTIAGDHPGIKKEDAPVDLGKGPVVGIVDASGRGLIAHPKVLDMIKAVSEKYKIDVQWEVGEGGTTDATAIHLTREGIPTGVISVPARYIHTPVEVIDKRDLEKTVELVYNCIKEVNNFF", "values": [{"measurement": "peptide hydrolysis followed by reverse phase HPLC", "setting": "[1]", "value": "After 5 minutes, the original peptide substrate was almost hydrolyzed and four peptide products were detected"}, {"measurement": "time necessary to hydrolyse 50% of the peptide, at 20 °C", "setting": "peptide YFLMNENRYTSWNSE", "value": 75, "unit": "h"}, {"measurement": "time necessary to hydrolyse 50% of the peptide, at 30 °C", "setting": "peptide YFLMNENRYTSWNSE", "value": 55, "unit": "h"}, {"measurement": "time necessary to hydrolyse 50% of the peptide, at 40 °C", "setting": "peptide YFLMNENRYTSWNSE", "value": 3.9, "unit": "h"}, {"measurement": "time necessary to hydrolyse 50% of the peptide, at 50 °C", "setting": "peptide YFLMNENRYTSWNSE", "value": 1.3, "unit": "h"}, {"measurement": "time necessary to hydrolyse 50% of the peptide, at 60 °C", "setting": "peptide YFLMNENRYTSWNSE", "value": 1, "unit": "h"}, {"measurement": "time necessary to hydrolyse 50% of the peptide, at 70 °C", "setting": "peptide YFLMNENRYTSWNSE", "value": 0.6, "unit": "h"}, {"measurement": "time necessary to hydrolyse 50% of the peptide, at 80 °C", "setting": "peptide YFLMNENRYTSWNSE", "value": 0.25, "unit": "h"}]}]}
